Target: the molecule itself
Test: native gel or EMSA

B1: LamB (natural protein)
chain: VDFHGYARSGIGWTGSGGEQQCFQTTGAQSKYRLGNECETYAELKLGQEVWKEGDKSFYFDTNVAYSVAQQNDWEATDPAFREANVQGKNLIEWLPGSTIWAGKRFYQRHDVHMIDFYYWDISGPGAGLENIDVGFGKLSLAATRSSEAGGSSSFASNNIYDYTNETANDVFDVRLAQMEINPGGTLELGVDYGRANLRDNYRLVDGASKDGWLFTAEHTQSVLKGFNKFVVQYATDSMTSQGKGLSQGSGVAFDNEKFAYNINNNGHMLRILDHGAISMGDNWDMMYVGMYQDINWDNDNGTKWWTVGIRPMYKWTPIMSTVMEIGYDNVESQRTGDKNNQYKITLAQQWQAGDSIWSRPAIRVFATYAKWDEKWGYDYTGNADNNANFGKAVPADFNGGSFGRGDSDEWTFGAQMEIWW
For B1, the “stoichiometry N” value was 3.

From paper PMC3779476 (Nature, 2013)
